Experimental data as given in FireProtDB (doi:10.1016/s0014-5793(99)01395-2).

Conditions: Escherichia phage lambda, pH 7, Thermal, Fluorescence, phosphate buffer 100 mM, reversible: yes, whole UniProt chain shown

B1: Endolysin wild type, P03706 (protein)
chain: MVEINNQRKAFLDMLAWSEGTDNGRQKTRNHGYDVIVGGELFTDYSDHPRKLVTLNPKLKSTGAGRYQLLSRWWDAYRKQLGLKDFSPKSQDAVALQQIKERGALPMIDRGDIRQAIDRCSNIWASLPGAGYGQFEHKADSLIAKFKEAGGTVREIDV
- unfolding free energy (25 °C): 29.7 kJ/mol
- Tm: 52.3 °C
- unfolding enthalpy (van 't Hoff): 474 kJ/mol
